From patent CN117368459A (INST MILITARY MEDICINE ACADEMY MILITARY SCIENCES PLA, dated 2024)

Molecular target: 新冠病毒S1-RBD蛋白 (新冠病毒 (SARS-CoV-2), UniProt P0DTC2 319-541)
Assay: […] (BLI), […], antibody 118 nM to 1.88 nM, 1:1 model

B1: Nluc-chC25抗体 (antibody, human IgG1)
light: NIVLTQSPVSLAVSLGQRATISCRASESVDSYGNSFMHWYQQKPGQPPKLLIYIASNLESGVPARFSGGGSRTDFTLTIDPVEADDAATYYCQQNYEDPWTFGGGTKLEIKRADAAPSVFIFPPSDEQLKSGTASVVCLLNNFYPREAKVQWKVDNALQSGNSQESVTEQDSKDSTYSLSSTLTLSKADYEKHKVYACEVTHQGLSSPVTKSFNRGEC
heavy: not shown
notes: also called Nluc-chC25重组抗体; Nluc标记重组抗体
B1 was tested, and the Kd was 0.0151 nM.

B2: HRP-chC25抗体 (antibody, human IgG1)
light: B1 light
heavy: not shown
notes: also called HRP标记重组抗体; HRP-2C5
B2 showed a Kd of 0.0375 nM.
